# According to PMC7219890 (2020):
# T1: Mical-1 (Homo sapiens, UniProt Q8TDZ2)
# T1 chain: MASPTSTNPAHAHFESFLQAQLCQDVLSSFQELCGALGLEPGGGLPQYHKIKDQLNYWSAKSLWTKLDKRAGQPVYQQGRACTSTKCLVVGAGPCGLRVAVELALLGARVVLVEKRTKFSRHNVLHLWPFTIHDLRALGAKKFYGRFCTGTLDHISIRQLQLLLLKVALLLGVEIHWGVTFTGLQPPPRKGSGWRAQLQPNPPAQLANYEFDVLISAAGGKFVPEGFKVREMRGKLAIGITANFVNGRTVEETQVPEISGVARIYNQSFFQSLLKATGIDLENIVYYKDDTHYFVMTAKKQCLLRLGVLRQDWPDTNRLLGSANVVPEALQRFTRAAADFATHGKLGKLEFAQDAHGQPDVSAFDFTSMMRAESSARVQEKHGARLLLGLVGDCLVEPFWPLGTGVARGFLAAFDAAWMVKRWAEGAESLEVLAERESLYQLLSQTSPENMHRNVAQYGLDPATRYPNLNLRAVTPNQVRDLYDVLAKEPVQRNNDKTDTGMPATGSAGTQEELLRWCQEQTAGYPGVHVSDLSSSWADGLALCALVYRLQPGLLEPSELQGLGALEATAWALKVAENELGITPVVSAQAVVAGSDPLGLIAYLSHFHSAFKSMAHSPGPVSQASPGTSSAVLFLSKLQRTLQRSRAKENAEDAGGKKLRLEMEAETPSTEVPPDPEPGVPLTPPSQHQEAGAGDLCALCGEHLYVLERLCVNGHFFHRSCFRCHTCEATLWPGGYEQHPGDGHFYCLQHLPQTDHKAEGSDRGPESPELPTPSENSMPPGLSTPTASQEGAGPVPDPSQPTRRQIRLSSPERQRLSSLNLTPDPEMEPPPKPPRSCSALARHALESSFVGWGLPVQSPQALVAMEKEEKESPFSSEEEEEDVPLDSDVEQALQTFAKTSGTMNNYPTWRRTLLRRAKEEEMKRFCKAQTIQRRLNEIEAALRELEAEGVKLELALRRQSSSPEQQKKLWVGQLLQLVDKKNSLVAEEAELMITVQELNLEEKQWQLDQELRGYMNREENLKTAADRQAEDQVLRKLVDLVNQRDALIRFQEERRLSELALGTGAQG
# B1: Rab8A 6-176 (protein)
# chain: DYLFKLLLIGDSGVGKTCVLFRFSEDAFNSTFISTIGIDFKIRTIELDGKRIKLQIWDTAGQERFRTITTAYYRGAMGIMLVYDITNEKSFDNIRNWIRNIEEHASADVEKMILGNKCDVNDKRQVSKERGEKLALDYGIKFMETSAKANINVENAFFTLARDIKAKMDKK
# modifications: GppNHp-bound, C-terminal His6 tag on Rab8A
# B2: Rab8A 6-176 (protein)
# chain: B1 chain
# modifications: phosphoSer111 Rab8A, GppNHp-bound, C-terminal His6 tag on Rab8A
# Biological target: T1, Mical-1
# Experiment: ITC
row,Kd,Binder
1,923 nM,B1
2,913 nM,B2
